Results reported in US20220298260A1 (MYTHIC THERAPEUTICS, published 2022).

B1: MYT0631 (antibody, V domains shown)
VH: QVQLVQSGAEVVKPGASVKISCKASGYTFTGYFMNWVKQSPGQSLEWIGRIHPYDGDTFYNQKFQGKATLTVDKSSNTAHMELLSLTSEDFAVYYCTRYDHSRAMDYWGQGTTVTVSS
VL: DIVLTQSPLSLAVSLGQPAIISCKASQSVSFAGTSLMHWYHQKPGQQPRLLIYRASNLEAGVPDRFSGSGSKTDFTLTISPVEAEDAATYYCQQSREYPYTFGGGTKLEIK
notes: IgG
B2: MYT0634 (antibody, V domains shown)
VH: QVQLVQSGAEVVKPGASVKISCKASGYTFTGYFMNWVKQSPGQSLEWIGRIHPYDGDTFYNQKFQGKATLTVDKSSNTAHMELLSLTSEDFAVYYCTRYDGSRHMDYWGQGTTVTVSS
VL: DIVLTQSPLSLAVSLGQPAIISCKASQSVSFAGTSLMHWYHQKPGQQPRLLIYRASNLEAGVPDRFSGSGSKTDFTLTISPVEAEDAATYYCQQSREYPYTFGGGTKLEIK
notes: IgG
B3: MYT2244 (antibody, V domains shown)
VH: EVQLVESGGGLVQPGGSLRLSCAASGFNIRTQSIHWVRQAPGKGLEWIGDIFPIDGITHYADSVKGRFTISADTSKNTAYLQMNSLRAEDTAVYYCARGSWSWPSGMDYYLDYWGQGTLVTVSS
VL: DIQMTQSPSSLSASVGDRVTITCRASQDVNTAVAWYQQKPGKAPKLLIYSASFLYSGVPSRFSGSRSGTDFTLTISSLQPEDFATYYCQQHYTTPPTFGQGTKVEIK
notes: IgG
B4: MYT2252 (antibody, V domains shown)
VH: EVQLVESGGGLVQPGGSLRLSCAASGFNIRTQSIHWVRQAPGKGLEWIGDIFPIDGITDYADSVKGRFTISADTSKNTAYLQMNSLRAEDTAVYYCHRGSWSWPSGMDYYLDYWGQGTLVTVSS
VL: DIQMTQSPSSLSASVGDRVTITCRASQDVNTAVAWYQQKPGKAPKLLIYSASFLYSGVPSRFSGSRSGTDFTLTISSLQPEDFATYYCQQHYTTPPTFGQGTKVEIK
notes: IgG
B5: MYT2254 (antibody, V domains shown)
VH: EVQLVESGGGLVQPGGSLRLSCAASGFNIRTQSIHWVRQAPGKGLEWIGDIFPIDGITDYADSVKGRFTISADTSKNTAYLQMNSLRAEDTAVYYCARHSWSWPSGMDYYLDYWGQGTLVTVSS
VL: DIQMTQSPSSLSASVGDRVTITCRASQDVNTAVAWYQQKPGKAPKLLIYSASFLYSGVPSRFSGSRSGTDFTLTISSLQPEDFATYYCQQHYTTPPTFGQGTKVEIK
notes: IgG
B6: MYT2259 (antibody, V domains shown)
VH: EVQLVESGGGLVQPGGSLRLSCAASGFNIRTQSIHWVRQAPGKGLEWIGDIFPIDGITDYADSVKGRFTISADTSKNTAYLQMNSLRAEDTAVYYCARGSWSWHSGMDYYLDYWGQGTLVTVSS
VL: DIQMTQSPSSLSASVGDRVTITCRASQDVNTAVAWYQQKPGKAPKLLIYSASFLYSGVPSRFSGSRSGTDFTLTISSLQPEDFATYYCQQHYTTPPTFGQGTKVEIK
notes: IgG
B7: MYT2261 (antibody, V domains shown)
VH: EVQLVESGGGLVQPGGSLRLSCAASGFNIRTQSIHWVRQAPGKGLEWIGDIFPIDGITDYADSVKGRFTISADTSKNTAYLQMNSLRAEDTAVYYCARGSWSWPSHMDYYLDYWGQGTLVTVSS
VL: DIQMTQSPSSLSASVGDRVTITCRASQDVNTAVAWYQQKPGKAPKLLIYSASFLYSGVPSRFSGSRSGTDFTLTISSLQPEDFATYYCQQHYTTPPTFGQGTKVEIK
notes: IgG
B8: MYT4501 (antibody, V domains shown)
VH: EVQLVESGGGLVQPGGSLRLSCAASGFNIRTQSIHWVRQAPGKGLEWIGDIFPIDGITDYADSVKGRFTISADTSKNTAYLQMNSLRAEDTAVYYCARGSWSWPSGMDYYLDYWGQGTLVTVSS
VL: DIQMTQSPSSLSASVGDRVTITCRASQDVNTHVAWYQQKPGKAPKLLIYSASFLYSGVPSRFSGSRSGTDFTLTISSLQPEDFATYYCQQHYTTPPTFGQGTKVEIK
notes: IgG
B9: MYT4503 (antibody, V domains shown)
VH: EVQLVESGGGLVQPGGSLRLSCAASGFNIRTQSIHWVRQAPGKGLEWIGDIFPIDGITDYADSVKGRFTISADTSKNTAYLQMNSLRAEDTAVYYCARGSWSWPSGMDYYLDYWGQGTLVTVSS
VL: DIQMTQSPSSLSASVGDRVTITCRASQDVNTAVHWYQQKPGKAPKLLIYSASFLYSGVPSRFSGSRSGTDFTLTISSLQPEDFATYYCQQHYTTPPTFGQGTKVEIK
notes: IgG
B10: MYT2194 (antibody, V domains shown)
VH: EVQLVESGGGVVQPGRSLRLSCSASGFTFSGYGLHWVRQAPGKGLEWVAMISSGGSYTYYADSVKGRFAISRDNAKNTLFLQMDSLRPEDTGVYFCARHGDDPAWFAYWGQGTPVTVSS
VL: DIQLTQSPSSLSASVGDRVTITCSVSSSISSNNLHWYQQKPGKAPKPWIYGTSNLASGVPSRFSGSGSGTDYTFTISSLQPEDIATYYCQQWSSYPYMYTFGQGTKVEIK
notes: IgG
B11: MYT2195 (antibody, V domains shown)
VH: EVQLVESGGGVVQPGRSLRLSCSASGFTFSGYGLSWVRQAPGKGLEWVAHISSGGSYTYYADSVKGRFAISRDNAKNTLFLQMDSLRPEDTGVYFCARHGDDPAWFAYWGQGTPVTVSS
VL: DIQLTQSPSSLSASVGDRVTITCSVSSSISSNNLHWYQQKPGKAPKPWIYGTSNLASGVPSRFSGSGSGTDYTFTISSLQPEDIATYYCQQWSSYPYMYTFGQGTKVEIK
notes: IgG
B12: MYT2196 (antibody, V domains shown)
VH: EVQLVESGGGVVQPGRSLRLSCSASGFTFSGYGLSWVRQAPGKGLEWVAMHSSGGSYTYYADSVKGRFAISRDNAKNTLFLQMDSLRPEDTGVYFCARHGDDPAWFAYWGQGTPVTVSS
VL: DIQLTQSPSSLSASVGDRVTITCSVSSSISSNNLHWYQQKPGKAPKPWIYGTSNLASGVPSRFSGSGSGTDYTFTISSLQPEDIATYYCQQWSSYPYMYTFGQGTKVEIK
notes: IgG
B13: MYT2215 (antibody, V domains shown)
VH: EVQLVESGGGVVQPGRSLRLSCSASGFTFSGYGLSWVRQAPGKGLEWVAMISSGGSYTYYADSVKGRFAISRDNAKNTLFLQMDSLRPEDTGVYFCARHHDDPAWFAYWGQGTPVTVSS
VL: DIQLTQSPSSLSASVGDRVTITCSVSSSISSNNLHWYQQKPGKAPKPWIYGTSNLASGVPSRFSGSGSGTDYTFTISSLQPEDIATYYCQQWSSYPYMYTFGQGTKVEIK
notes: IgG
B14: MYT2217 (antibody, V domains shown)
VH: EVQLVESGGGVVQPGRSLRLSCSASGFTFSGYGLSWVRQAPGKGLEWVAMISSGGSYTYYADSVKGRFAISRDNAKNTLFLQMDSLRPEDTGVYFCARHGDHPAWFAYWGQGTPVTVSS
VL: DIQLTQSPSSLSASVGDRVTITCSVSSSISSNNLHWYQQKPGKAPKPWIYGTSNLASGVPSRFSGSGSGTDYTFTISSLQPEDIATYYCQQWSSYPYMYTFGQGTKVEIK
notes: IgG
B15: MYT2219 (antibody, V domains shown)
VH: EVQLVESGGGVVQPGRSLRLSCSASGFTFSGYGLSWVRQAPGKGLEWVAMISSGGSYTYYADSVKGRFAISRDNAKNTLFLQMDSLRPEDTGVYFCARHGDDPHWFAYWGQGTPVTVSS
VL: DIQLTQSPSSLSASVGDRVTITCSVSSSISSNNLHWYQQKPGKAPKPWIYGTSNLASGVPSRFSGSGSGTDYTFTISSLQPEDIATYYCQQWSSYPYMYTFGQGTKVEIK
notes: IgG
B16: MYT2221 (antibody, V domains shown)
VH: EVQLVESGGGVVQPGRSLRLSCSASGFTFSGYGLSWVRQAPGKGLEWVAMISSGGSYTYYADSVKGRFAISRDNAKNTLFLQMDSLRPEDTGVYFCARHGDDPAWHAYWGQGTPVTVSS
VL: DIQLTQSPSSLSASVGDRVTITCSVSSSISSNNLHWYQQKPGKAPKPWIYGTSNLASGVPSRFSGSGSGTDYTFTISSLQPEDIATYYCQQWSSYPYMYTFGQGTKVEIK
notes: IgG
B17: mirvetuximab (antibody, V domains shown)
VH: QVQLVQSGAEVVKPGASVKISCKASGYTFTGYFMNWVKQSPGQSLEWIGRIHPYDGDTFYNQKFQGKATLTVDKSSNTAHMELLSLTSEDFAVYYCTRYDGSRAMDYWGQGTTVTVSS
VL: DIVLTQSPLSLAVSLGQPAIISCKASQSVSFAGTSLMHWYHQKPGQQPRLLIYRASNLEAGVPDRFSGSGSKTDFTLTISPVEAEDAATYYCQQSREYPYTFGGGTKLEIK
notes: IgG expressed in Expi293; the entries are labelled heavy/light chain of the IgG but hold only the variable domains; also called MYT0596
B18: MYT0603 (antibody, V domains shown)
VH: QVQLVQSGAEVVKPGASVKISCKASGYTHTGYFMNWVKQSPGQSLEWIGRIHPYDGDTFYNQKFQGKATLTVDKSSNTAHMELLSLTSEDFAVYYCTRYDGSRAMDYWGQGTTVTVSS
VL: DIVLTQSPLSLAVSLGQPAIISCKASQSVSFAGTSLMHWYHQKPGQQPRLLIYRASNLEAGVPDRFSGSGSKTDFTLTISPVEAEDAATYYCQQSREYPYTFGGGTKLEIK
notes: IgG
B19: MYT1154 (antibody, V domains shown)
VH: QVQLVQSGAEVVKPGASVKISCKHSGHTFTGYFMNWVKQSPGQSLEWIGRIHPYDGDTHYNQKFQGKATLTVDKSSNTAHMELLSLTSEDFAVYYCTRYDGSRAMDYWGQGTTVTVSS
VL: DIVLTQSPLSLAVSLGQPAIISCKASQSVSFAGTSLMHWYHQKPGQQPRLLIYRASNLEAGVPDRFSGSGSKTDFTLTISPVEAEDAATYYCQQSREYPYTFGGGTKLEIK
notes: IgG

What follows are binders tested against T1, FOLR1 (R&D Systems, Cat #5646-FR) (human, UniProt P15328 25-233) (assay: BLI, IgG on anti-human Fc sensor).
T1 construct: Bought soluble protein; also called Folate Receptor 1
T1 sequence (P15328 25-233 limits assumed): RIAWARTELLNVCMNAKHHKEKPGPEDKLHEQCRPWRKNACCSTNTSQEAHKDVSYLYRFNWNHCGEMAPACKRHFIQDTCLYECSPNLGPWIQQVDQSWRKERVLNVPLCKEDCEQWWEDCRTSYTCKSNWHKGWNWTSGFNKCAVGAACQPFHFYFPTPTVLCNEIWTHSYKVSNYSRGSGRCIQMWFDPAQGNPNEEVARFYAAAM
B1: no binding (tested: 50 nM). B2: no binding (tested: 50 nM). B3: no binding (tested: 50 nM). B4: no binding (tested: 50 nM). B5: no binding (tested: 50 nM). B6: no binding (tested: 50 nM). B7: no binding (tested: 50 nM). B8: no binding (tested: 50 nM). B9: no binding (tested: 50 nM). B10: no binding (tested: 50 nM). B11: no binding (tested: 50 nM). B12: no binding (tested: 50 nM). B13: no binding (tested: 50 nM). B14: no binding (tested: 50 nM). B15: no binding (tested: 50 nM). B16: no binding (tested: 50 nM).

These binders were tested against T2, FOLR1 on NIH:OVCAR-3 cells (human, UniProt P15328 25-233) (assay: flow cytometry on NIH:OVCAR-3 cells, Alexa Fluor 488 anti-human IgG).
T2 construct: Endogenous FOLR1 of NIH:OVCAR-3 (FOLR1+) cells; also called cell surface FOLR1
T2 sequence (P15328 25-233): as the sequence (P15328 25-233 limits assumed) above
Description: Binding affinity of selected anti-FOLR1 pH engineered antibody variants from Examples 9 and 11 were measured on NIH:OVCAR-3 cells. 100,000 cells per well were resuspended in […] FC buffer in a 96 well deep well plate. Mirvetuximab and pH engineered antibody variants were serially diluted at a 1:3 dilution. 100 µL of diluted antibody was added to each well with final concentration ranging from ˜100 nM to 0.024 pM and incubated for 2 hours at 4° C. Post incubation, the cells were spun at 2000 rpm for 2 min and supernatant was discarded. Cells were washed twice with 500 μL of ice-cold FC buffer and resuspended with 100 μL of FC buffer. The cells were then transferred from the deep well plate to 96 well round bottom plate, spun at 2000 rpm for 2 min and incubated with 100 μL of 10 μg/mL Alexa Fluor 488 conjugated goat anti-human IgG secondary antibody (ThermoFisher Scientific, A11013) for 30 min. Post incubation, cells were washed with FC buffer and resuspended in 100 μL, of FC buffer to read on a BD Accuri C6 flow cytometer. […] MYT0603 and MYT1154 show high affinity binding to cell surface FOLR1 on NIH:OVCAR-3 cells in the pM-nM range confirming that variants created through pH engineering can retain functionally appropriate affinities as compared to their corresponding starting ABPCs (e.g., mirvetuximab).
Binder B17 has an IC50 of 0.25 nM. B18 gave an IC50 of 0.65 nM. B19 gave an IC50 of 0.396 nM.
